According to patent US12258605B2, “Alkane oxidation by modified hydroxylases” (The California Institute of Technology, priority 2005, dated 2025):
Marks after values point to notes of the source that are not given here.

Columns and labels:
Type in all cases: biochemical
[1] = Background NADPH oxidation rate in screen (cell lysate, no substrate); conditions: relative to 35-E11
Method: (§1) Libraries of mutants of 35-E11 were screened for phenotypes indicative of either increased product formation on small gaseous substrates slightly larger than methane. Additionally, they were screened for increased coupling of the consumption of NADPH reducing equivalents to product formation. Product formation was determined by measuring total amount of dimethyl ether hydroxylation while increased coupling was determined primarily by decreased background NADPH consumption rates (measured spectrophotometrically at 340 nm in the absence of substrate).
The relative dimethyl ether (DME) activity was measured, 1 hour after treatment with Purpald, as the average net and absorbance at 550 nm from 8 microtitre plate DME reactions of the mutant compared to 8 equivalent reactions of 35-E11. All values were normalized by measuring the P450 concentration in each well with CO binding. “Asteriks” indicate criteria used to select mutants from libraries for further characterization. The oxidation rate is measured as absorbance change at 340 nm over 1 minute upon the addition of NADPH to 8 microtitre plate wells containing P450-containing cell lysate and compared to 8 equivalent reactions of 35-E11. All values were normalized by measuring the P450 concentration in each well with CO binding. The total turnover number (TTN) was measured as the absorbance at 550 nm of methane reactions with each mutant after treatment with alcohol oxidase and […]

[2] = Methane to methanol conversion (alcohol oxidase/Purpald); conditions: methane to methanol
Method: The 35-E11 variant was tested for the ability to convert methane to methanol using the method of Anthon and Barrett (Agric. Food Chem., 52:3749 (2004)). The method was optimized so that it could detect methanol concentrations in water as low as 10 μM.
The mutant BM-3 enzymes described below were purified using published procedures and used as catalysts in small reactions with methane. In glass head space vials containing magnetic stirring bars, BM-3 catalyst was added to 0.1 M potassium phosphate buffer (pH=8) saturated with methane. The vials were then crimped shut and charged to 20 psi with methane. To start the biotransformation, an NADPH regeneration system consisting of NADP+, isocitrate, and isocitric dehydrogenase was added through a syringe. The reaction was allowed to stir 12-15 hours. Methanol production was measured using a coupled enzyme assay. Aliquots of the reaction were transferred to 96-well microtitre plates and reacted with the enzyme alcohol oxidase for 5 minutes at room temperature. Alcohol oxidase converts the methanol produced by the BM-3 variants into formaldehyde which can be detected with the dye Purpald. To detect formaldehyde and quench the alcohol oxidase reaction, a solution of Purpald in 2 M NaOH was added and allowed to react for one hour. The purple color that Purpald forms in the presence of formaldehyde was quantified one hour later by spectrophotometrically reading the well at 550 nm and comparing the absorbance against similarly-treated solutions of BM-3, NADPH regeneration system, and methane-free buffer spiked with known concentrations of methanol. The results of these biotransformations are reported in Table 3 and sample spectra from the colorimetric assay are shown in FIG. 7.
Reactions for enzyme-catalyzed conversion of methane to methanol were carried out in 10 mL glass headspace vials. A 470 μL reaction mixture containing 5 μM purified BM-3 variant in 0.1 M potassium phosphate buffer (pH 8.0) was first added to the vial. The vial was immediately topped with a septum, pressurized with 30 psi of methane and shaken at 4° C. for 1 hour. […] For determination of total turnover, the reaction was allowed to proceed for 20 hours at room temperature.
The amount of methanol product formed during the 20 hr methane reaction was quantified colorimetrically with the use of alcohol oxidase and Purpald. 190 μL of the reaction mixture is transferred onto a single cell of a 96 well plate. 10 μL of 0.05 U/μL solution of alcohol oxidase (from Pichia pastoris, purchased from Sigma-Aldrich) was added to cell and allowed to incubate at room temperature for 5 minutes. During this time, the alcohol oxidase converts the methanol into formaldehyde. Purpald (168 mM in 2 M NAOH) was then added to form a purple product with the formaldehyde in solution. The purple color was read approximately 1 hour later at 550 nm using a Spectramax Plus microtiter plate reader. The concentration of methanol was determined based on the measure absorbance in comparison to a methanol calibration curve. The methanol calibration curve was generated with several standards. Each standard contained 100 μL of a methanol solution (10, 20, 40, 60, 100 μM) and 90 μL of the methane reaction mixture described above, without the methane pressurization.
The relative dimethyl ether (DME) activity was measured, 1 hour after treatment with Purpald, as the average net and absorbance at 550 nm from 8 microtitre plate DME reactions of the mutant compared to 8 equivalent reactions of 35-E11. All values were normalized by measuring the P450 concentration in each well with CO binding. “Asteriks” indicate criteria used to select mutants from libraries for further characterization. The oxidation rate is measured as absorbance change at 340 nm over 1 minute upon the addition of NADPH to 8 microtitre plate wells containing P450-containing cell lysate and compared to 8 equivalent reactions of 35-E11. […]

[3] = High-throughput dimethyl ether (DME) screen; conditions: relative to 35-E11; normalized to P450 concentration
Method: Cell lysates for high throughput screening were prepared as described previously (Peters et al., J. Am. Chem. Soc. 125:13442 (2003); incorporated by reference herein). High-throughput dimethyl ether (DME) screens were performed in 96 well plates as described previously. Improved mutants were selected based on an increased signal compared to 9-10A (for the saturation mutagenesis libraries) and 1-12G (for the recombination library). Reactions on octane and propane were analyzed by gas chromatography as described.
as §1
The relative dimethyl ether (DME) activity was measured, 1 hour after treatment with Purpald, as the average net and absorbance at 550 nm from 8 microtitre plate DME reactions of the mutant compared to 8 equivalent reactions of 35-E11. All values were normalized by measuring the P450 concentration in each well with CO binding. “Asteriks” indicate criteria used to select mutants from libraries for further characterization. The oxidation rate is measured as absorbance change at 340 nm over 1 minute upon the addition of NADPH to 8 microtitre plate wells containing P450-containing cell lysate and compared to 8 equivalent reactions of 35-E11. All values were normalized by measuring the P450 concentration in each well with CO binding. The total turnover number (TTN) was measured as the absorbance at 550 nm of methane reactions with each mutant after treatment with alcohol oxidase and
Screening libraries by spectroscopically monitoring NADPH consumption rates in the presence of the alkane often selects for mutants with NADPH oxidation rates highly uncoupled to product formation. This can be overcome through the use of surrogate substrates that mimic desired substrates, yet yield species when hydroxylated that are easily detected either directly or with the addition of a dye. For example, the screen for the high-throughput identification of mutant BM-3 enzymes with activity towards propane as described previously uses dimethyl ether (DME) as a propane surrogate substrate. Upon hydroxylation, it decomposes into methanol and dye-sensitive formaldehyde. In addition, hexyl methyl ether (HME) may be used as a surrogate for octane. It shares most of the physical properties of octane, including solubility in buffer, size, shape, and strength of its C—H bonds. When HME is hydroxylated at its methoxy carbon, it also produces an equivalent of formaldehyde which is visually detected at concentrations as low as 10 μM with the dye Purpald (see FIG. 25). Hexanal, the aldehyde product formed when the α-carbon of the hexyl group is hydroxylated, is practically unreactive towards Purpald at some concentrations used in the present screens. Formaldehyde is approximately 42 times more sensitive to Purpald than hexanal (see FIG. 26). This disproportionate response makes HME, in contrast to the symmetric ether DME, a regio-selective screen for terminal alkane hydroxylation.
High-throughput screening. Single colonies were picked and inoculated by a Qpix robot (Genetix, Beaverton, OR) into 1-mL, deep-well plates containing LB (Amp*) medium (400 μL). The plates were incubated at 30° C., 250 rpm, and 80% relative humidity. After 24 h, 50 μL from this pre-culture were used to inoculate a 2-mL, deep-well plates containing […] TB (Amp^+) medium per well. Cultures were grown at 37° C., 220 rpm, and 80% relative humidity. […]

B1: 35-E11-E464T: P450 BM-3 variant, SEQ ID NO:10; 35-E11 with E464T (protein)
chain: TIKEMPQPKTFGELKNLPLLNTDKPVQALMKIADELGEIFKFEAPGCVTRYLSSQRLIKEACDESRFDKNLSQALKFFRDFSGDGLFTSWTHEINWKKAHNILLPSFSQQAMKGYHAMMVDIAVQLVQKWERLNADEHIEVSEDMTRLTLDTIGLCGFNYRFNSFYRDQPHPFIISMVRALDEVMNKLQRANPDDPAYDENKRQCQEDIKVMNDLVDKIIADRKARGEQSDDLLTQMLNGKDPETGEPLDDGNISYQIITFLIAGHETTSGLLSFALYFLVKNPHVLQKVVEEAARVLVDPVPSYKQVKQLKYVGMVLNEALRLWPTFPAFSLYAKEDTVLGGEYPLEKGDEVMVLIPQLHRDKTIWGDDVEEFRPERFENPSAIPQHAFKPFGNGQRACIGQQFALHEATLVLGMMLKHFDFEDHTNYELDIKETLTLKPEGFVVKAKSKKIPLGGIPSPSTTQSAKKVRKKAENAHNTPLLVLYGSNMGTAEGTARDLADIAMSKGFAPQVATLDSHAGNLPREGAVLIVTASYNGHPPDNAKQFVDWLDQASADEVKGVRYSVFGCGDKNWATTYQKVPAFIDETLAAKGAENIADRGEADASDDFEGTYEEWREHMWSDVAAYFNLDIENSEDNKSTLSLQFVDSAADMPLAKMHGAFSTNVVASKELQQPGSARSTRHLEIELPKEASYQEGDHLGVIPRNYEGTVNRVTARFGLDASQQIRLEAEEEKLAHLPLAKTVSVEELLQYVELQDPVTRTQLRAMAAKTVCPPHKVELEALLEKQAYKEQVLAKRLTMLELLEKYPACEMKFSEFIALLPSIRPRYYSISSSPRVDEKQASITVSVVSGEAWSGYGEYKGIASNYLAELQEGDTITCFISTPQSEFTLPKDPETPLIMVGPGTGVAPFRGFVQARKQLKEQGQSLGEAHLYFGCRSPHEDYLYQEELENAQSEGIITLHTAFSRMPNQPKTYVQHVMEQDGKKLIELLDQGAHFYICGDGSQMAPAVEATLMKSYADVHQVSEADARLWLQQLEEKGRYAKDVWAG
modifications: mutant P450 35-E11-E464T protein sequence
notes: 35-E11 with E464T
Relative background NADPH oxidation rate [1]: 0.7*
Methane TTN [2]: 11
Relative DME activity in screen [3]: 0.8

B2: 23-1D: P450 BM-3 variant, SEQ ID NO:12; 35-E11 plus Q645R, P968L (protein)
chain: TIKEMPQPKTFGELKNLPLLNTDKPVQALMKIADELGEIFKFEAPGCVTRYLSSQRLIKEACDESRFDKNLSQALKFFRDFSGDGLFTSWTHEINWKKAHNILLPSFSQQAMKGYHAMMVDIAVQLVQKWERLNADEHIEVSEDMTRLTLDTIGLCGFNYRFNSFYRDQPHPFIISMVRALDEVMNKLQRANPDDPAYDENKRQCQEDIKVMNDLVDKIIADRKARGEQSDDLLTQMLNGKDPETGEPLDDGNISYQIITFLIAGHETTSGLLSFALYFLVKNPHVLQKVVEEAARVLVDPVPSYKQVKQLKYVGMVLNEALRLWPTFPAFSLYAKEDTVLGGEYPLEKGDEVMVLIPQLHRDKTIWGDDVEEFRPERFENPSAIPQHAFKPFGNGQRACIGQQFALHEATLVLGMMLKHFDFEDHTNYELDIKETLTLKPEGFVVKAKSKKIPLGGIPSPSTGQSAKKVRKKAENAHNTPLLVLYGSNMGTAEGTARDLADIAMSKGFAPQVATLDSHAGNLPREGAVLIVTASYNGHPPDNAKQFVDWLDQASADEVKGVRYSVFGCGDKNWATTYQKVPAFIDETLAAKGAENIADRGEADASDDFEGTYEEWREHMWSDVAAYFNLDIENSEDNKSTLSLRFVDSAADMPLAKMHGAFSTNVVASKELQQPGSARSTRHLEIELPKEASYQEGDHLGVIPRNYEGTVNRVTARFGLDASQQIRLEAEEEKLAHLPLAKTVSVEELLQYVELQDPVTRTQLRAMAAKTVCPPHKVELEALLEKQAYKEQVLAKRLTMLELLEKYPACEMKFSEFIALLPSIRPRYYSISSSPRVDEKQASITVSVVSGEAWSGYGEYKGIASNYLAELQEGDTITCFISTPQSEFTLPKDPETPLIMVGPGTGVAPFRGFVQARKQLKEQGQSLGEAHLYFGCRSPHEDYLYQEELENAQSEGIITLHTAFSRMLNQPKTYVQHVMEQDGKKLIELLDQGAHFYICGDGSQMAPAVEATLMKSYADVHQVSEADARLWLQQLEEKGRYAKDVWAG
modifications: Mutant P450 23-1D protein sequence
notes: 35-E11 plus Q645R, P968L
Relative background NADPH oxidation rate [1]: 0.8*
Methane TTN [2]: 11
Relative DME activity in screen [3]: 0.7
